From patent publication US20250084178A1 (ARCUS BIOSCIENCES, published 2025)
Read-outs that look alike come from different tables or passages of the source.

T1: human CD39 expressed on the cell surface (human, UniProt P49961 1-510)
T1 sequence: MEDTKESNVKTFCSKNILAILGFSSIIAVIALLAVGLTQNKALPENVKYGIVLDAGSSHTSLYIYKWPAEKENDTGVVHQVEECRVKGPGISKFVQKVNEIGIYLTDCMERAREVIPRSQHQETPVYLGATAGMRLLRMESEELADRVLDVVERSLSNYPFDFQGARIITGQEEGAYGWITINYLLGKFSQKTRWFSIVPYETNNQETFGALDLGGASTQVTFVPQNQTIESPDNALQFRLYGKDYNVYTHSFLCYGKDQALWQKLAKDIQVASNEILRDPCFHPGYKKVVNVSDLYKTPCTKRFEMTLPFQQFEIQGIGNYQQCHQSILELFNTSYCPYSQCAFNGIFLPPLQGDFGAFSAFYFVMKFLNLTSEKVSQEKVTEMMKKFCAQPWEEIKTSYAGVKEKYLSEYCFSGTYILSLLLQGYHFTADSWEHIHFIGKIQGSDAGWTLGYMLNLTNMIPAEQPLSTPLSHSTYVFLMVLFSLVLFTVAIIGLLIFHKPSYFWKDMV

T2: soluble His-tagged human CD39 ECD protein (human, UniProt P49961 38-478)
T2 construct: also called human CD39 ECD His-tagged antigen; Sino Biological Cat. No. 16020-H08B
T2 sequence: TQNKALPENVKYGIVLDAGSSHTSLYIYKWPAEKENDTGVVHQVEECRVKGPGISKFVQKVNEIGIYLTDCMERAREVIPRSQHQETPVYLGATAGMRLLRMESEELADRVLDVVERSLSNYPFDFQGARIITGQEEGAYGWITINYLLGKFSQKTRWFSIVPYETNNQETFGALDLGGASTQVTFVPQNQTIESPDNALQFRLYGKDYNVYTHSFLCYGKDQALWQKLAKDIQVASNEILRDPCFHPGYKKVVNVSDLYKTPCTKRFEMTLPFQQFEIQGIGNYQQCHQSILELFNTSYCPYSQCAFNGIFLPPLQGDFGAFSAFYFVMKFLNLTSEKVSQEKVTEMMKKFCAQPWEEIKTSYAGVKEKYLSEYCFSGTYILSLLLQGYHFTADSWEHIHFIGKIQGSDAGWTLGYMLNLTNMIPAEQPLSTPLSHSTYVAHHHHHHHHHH

T3: murine CD39 expressed on HEK-293 cells (murine, UniProt P55772 1-510)
T3 construct: also called mouse CD39
T3 sequence: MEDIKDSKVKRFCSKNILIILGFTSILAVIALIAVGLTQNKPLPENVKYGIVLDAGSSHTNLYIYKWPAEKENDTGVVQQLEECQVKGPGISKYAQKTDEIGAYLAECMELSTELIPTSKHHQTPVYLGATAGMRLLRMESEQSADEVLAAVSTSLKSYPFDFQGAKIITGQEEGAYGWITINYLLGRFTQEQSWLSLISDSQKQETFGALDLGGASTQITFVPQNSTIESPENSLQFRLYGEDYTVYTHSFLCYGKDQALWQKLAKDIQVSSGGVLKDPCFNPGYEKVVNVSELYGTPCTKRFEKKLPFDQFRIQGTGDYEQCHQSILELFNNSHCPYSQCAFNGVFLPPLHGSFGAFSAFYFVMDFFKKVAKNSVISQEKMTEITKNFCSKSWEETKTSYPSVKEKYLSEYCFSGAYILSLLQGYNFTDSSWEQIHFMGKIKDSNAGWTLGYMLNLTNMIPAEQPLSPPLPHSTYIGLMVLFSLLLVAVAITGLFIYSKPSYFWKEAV

T4: cynomolgus monkey CD39 expressed on HEK-293 cells (cynomolgus monkey, UniProt P49961 5-510 (human entry))
T4 construct: also called Cynomolgus Monkey CD39-HEK293
T4 chain: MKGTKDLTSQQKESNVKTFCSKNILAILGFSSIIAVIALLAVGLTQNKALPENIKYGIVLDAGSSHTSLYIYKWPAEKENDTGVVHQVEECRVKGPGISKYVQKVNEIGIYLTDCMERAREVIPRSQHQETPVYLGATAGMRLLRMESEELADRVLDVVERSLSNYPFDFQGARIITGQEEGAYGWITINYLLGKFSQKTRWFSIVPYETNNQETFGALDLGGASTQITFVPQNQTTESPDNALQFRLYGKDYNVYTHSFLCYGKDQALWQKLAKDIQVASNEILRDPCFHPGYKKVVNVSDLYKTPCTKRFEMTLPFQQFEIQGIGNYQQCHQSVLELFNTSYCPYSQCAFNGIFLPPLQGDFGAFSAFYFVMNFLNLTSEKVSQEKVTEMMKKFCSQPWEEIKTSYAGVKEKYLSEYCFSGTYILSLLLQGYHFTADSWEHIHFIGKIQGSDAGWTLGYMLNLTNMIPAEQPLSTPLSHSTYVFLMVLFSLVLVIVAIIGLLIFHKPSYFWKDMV

T5: recombinant human CD39 (soluble) (human, UniProt P49961 38-478, limits assumed)
T5 sequence (looked up): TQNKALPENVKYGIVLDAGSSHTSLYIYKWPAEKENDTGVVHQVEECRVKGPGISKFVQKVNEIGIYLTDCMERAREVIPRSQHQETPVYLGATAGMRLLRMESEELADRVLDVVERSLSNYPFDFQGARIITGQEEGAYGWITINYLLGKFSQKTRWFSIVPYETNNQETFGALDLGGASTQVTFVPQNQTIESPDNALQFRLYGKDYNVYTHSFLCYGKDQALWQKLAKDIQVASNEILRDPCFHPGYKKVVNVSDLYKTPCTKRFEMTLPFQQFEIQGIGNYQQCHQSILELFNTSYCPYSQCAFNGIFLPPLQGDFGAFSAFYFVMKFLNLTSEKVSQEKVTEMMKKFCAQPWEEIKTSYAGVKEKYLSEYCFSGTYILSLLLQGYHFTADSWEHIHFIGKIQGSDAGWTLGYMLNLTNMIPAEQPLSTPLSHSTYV


Assays:
[1] = target: T1, human CD39 expressed on the cell surface; assay: cell-based or functional assay
[2] = target: T1, human CD39 expressed on the cell surface; assay: flow cytometry on purified human CD14+ monocytes, 400 uM ATP
[3] = target: T1, human CD39 expressed on the cell surface; assay: flow cytometry on purified human CD14+ monocytes, 0 uM ATP
[4] = target: T2, soluble His-tagged human CD39 ECD …; assay: SPR (Biacore 8K), antibody captured via anti-human Fc, CD39 ECD analyte, 25 C
[5] = target: T1, human CD39 expressed on the cell surface; assay: cell-based or functional assay; remark: listed apart in the source
[6] = target: T3, murine CD39 expressed on HEK-293 cells; assay: FACS on HEK-293 cells overexpressing murine CD39 (method of Example 1)
[7] = target: T4, cynomolgus monkey CD39 expressed on …; assay: FACS on HEK293 cells overexpressing cynomolgus CD39
[8] = target: T5, recombinant human CD39 (soluble); assay: cell-based or functional assay
[9] = target: T1, human CD39 expressed on the cell surface; assay: cell-based or functional assay; remark: listed apart in the source
[10] = target: T1, human CD39 expressed on the cell surface; assay: FACS on CHO-K1 cells overexpressing human CD39
[11] = target: T4, cynomolgus monkey CD39 expressed on …; assay: FACS on HEK293 cells overexpressing cynomolgus CD39
[12] = target: T1, human CD39 expressed on the cell surface; assay: cell-based or functional assay; remark: listed apart in the source
[13] = target: T2, soluble His-tagged human CD39 ECD …; assay: SPR (Biacore 8K), antibody captured via anti-human Fc, CD39 ECD analyte
[14] = target: T1, human CD39 expressed on the cell surface; assay: cell-based or functional assay; remark: listed apart in the source
[15] = target: T1, human CD39 expressed on the cell surface; assay: FACS on CHO-K1 cells overexpressing human CD39; remark: listed apart in the source
[16] = target: T2, soluble His-tagged human CD39 ECD …; assay: SPR (Biacore 8K), antibody captured via anti-human Fc, CD39 ECD analyte; remark: listed apart in the source
[17] = target: T1, human CD39 expressed on the cell surface; assay: cell-based or functional assay; remark: listed apart in the source

| Binder | IC50, CD39 enzymatic inhibition on THP-1 cells, 20 uM ATP [1] [nM] | Max Inhibition (%), THP-1 cells [1] [%] | EC50 [2] [nM] | EC50 [3] [nM] | IC50, CD39 enzymatic inhibition on SK-MEL-5 cells, 20 uM ATP [9] [nM] | Max Inhibition (%), SK-MEL-5 cells [9] [%] | EC50 [11] [nM] | IC50, CD39 enzymatic inhibition on human monocytes, 20 uM ATP [12] [nM] | Max Inhibition (%), human monocytes, 20 uM ATP [12] [%] | Kd [13] [nM] | Human THP-1 CD39 inhibition IC50 [14] [nM] | EC50 [15] [nM] | koff [13] [s⁻¹] | kon [13] [M⁻¹ s⁻¹] | Kd [16] [nM] | IC50, CD39 enzymatic inhibition on human monocytes, 400 uM ATP [17] [nM] | Max Inhibition (%), human monocytes, 400 uM ATP [17] [%] | further results |
| --- | --- | --- | --- | --- | --- | --- | --- | --- | --- | --- | --- | --- | --- | --- | --- | --- | --- | --- |
| ch19_IGG4.P (antibody, human IgG4 S228P, kappa, V domains shown, rat/human chimera of antibody 19, human IgG4 (S228P), kappa) VH: QVQLKETGPGLVQPTQTLSITCTVSGFSLTSYFTQWVRQTPGKGLEWMGFIRSGGSTQYNSAFKSRLSISRDTSKNQVFLKMNSLKTEDTGVYYCARDRPDYHDGTYGVLDVWGQGASVTVSS VL: DIRMTQSPASLSASLGETVNIECLASEDIDSDLAWYQKKPGKSPQLLIYNGNALQNGVPSRFSGSGSGTHFSLKINSLQSEDVATYFCQQYINYPYTFGGGTKLELRR | 0.75 | 75 | 49 | 61 | 5.4 | 55 | – | – | – | – | – | – | – | – | – | – | – | Kd [4]: 0.443 nM; koff [4]: 0.0004 s⁻¹; kon [4]: 902000 M⁻¹ s⁻¹; Human THP-1 CD39 inhibition IC50 [5]: 0.44 nM; binding result [6]: no binding; EC50 [7]: 4.3 nM; IC50, inhibition of recombinant CD39 enzymatic activity, 20 uM ATP [8]: 1.8 nM; Max Inhibition (%), recombinant CD39, 20 uM ATP [8]: 100%; EC50 [10]: 9.04 nM |
| hu31.4_IGG4.P (antibody, human IgG4 S228P, kappa, humanized variant of antibody 31 (VH1 + VL1), IgG4 (S228P)) heavy: not shown light: DIVLTQSPALAVSPGQRATITCRTQQTVDHYGTTYMNWYQQKPGQPPKLLIYLASSLASGVPARFSGSGSGTDFTLTINPVEADDTANYYCQQSRNLWTFGGGTKVEIKRTVAAPSVFIFPPSDEQLKSGTASVVCLLNNFYPREAKVQWKVDNALQSGNSQESVTEQDSKDSTYSLSSTLTLSKADYEKHKVYACEVTHQGLSSPVTKSFNRGEC | 0.095 | 73 | 26 | 16 | 1.1 | 71 | 0.78 | 0.59 | 74 | 0.176 | 0.26 | 1.7 | – | – | – | – | – | – |
| hu31.6_IGG4.P (antibody, human IgG4 S228P, kappa, V domains shown, humanized variant of antibody 31 (VH2 + VL1), IgG4 (S228P)) VH: EVQLVQSGAEVKKPGATVKISCKVSGDSITAYFMHWVQQAPGKGLEWMGRIDPDHERTKYAEKFKNRVTITADTSTNTVYMELSSLRSEDTAVYYCATERVPGFETDYWGQGVMVTVSS VL: DIVLTQSPALAVSPGQRATITCRTQQTVDHYGTTYMNWYQQKPGQPPKLLIYLASSLASGVPARFSGSGSGTDFTLTINPVEADDTANYYCQQSRNLWTFGGGTKVEIKR | – | – | – | – | – | – | 0.81 | – | – | 0.613 | 0.3 | 1.69 | 0.000684 | 1.12e+06 | – | – | – | – |
| hu39.2_IGG4.P (antibody, human IgG4 S228P, kappa, humanized variant of antibody 39 (VH1 + VL1), IgG4 (S228P)) heavy: not shown light: DIVLTQSPASLAVSPGQRATITCRASEGVKSYMHWYQQKPGQPPKLLIYKASNLASGVPARFSGSGSGTDFTLTINPVEADDTANYYCQQSWNDPTFGQGTKLEIKRTVAAPSVFIFPPSDEQLKSGTASVVCLLNNFYPREAKVQWKVDNALQSGNSQESVTEQDSKDSTYSLSSTLTLSKADYEKHKVYACEVTHQGLSSPVTKSFNRGEC | – | – | – | – | – | – | – | – | – | – | – | – | – | – | 0.0936 | 0.14 | 80 | – |
| hu39.4_IGG4.P (antibody, human IgG4 S228P, kappa, humanized variant of antibody 39 (VH3 + VL1), IgG4 (S228P)) heavy: not shown light: DIVLTQSPASLAVSPGQRATITCRASEGVKSYMHWYQQKPGQPPKLLIYKASNLASGVPARFSGSGSGTDFTLTINPVEADDTANYYCQQSWNDPTFGQGTKLEIKRTVAAPSVFIFPPSDEQLKSGTASVVCLLNNFYPREAKVQWKVDNALQSGNSQESVTEQDSKDSTYSLSSTLTLSKADYEKHKVYACEVTHQGLSSPVTKSFNRGEC | 0.064 | 76 | 10 | – | 0.13 | 60 | – | 0.13 | 71 | – | – | – | – | – | 0.185 | 0.45 | 73 | – |
| hu31.7_IGG4.P (antibody, human IgG4 S228P, kappa, V domains shown, humanized variant of antibody 31 (VH2 + VL2), IgG4 (S228P)) VH: EVQLVQSGAEVKKPGATVKISCKVSGDSITAYFMHWVQQAPGKGLEWMGRIDPDHERTKYAEKFKNRVTITADTSTNTVYMELSSLRSEDTAVYYCATERVPGFETDYWGQGVMVTVSS VL: DIVMTQSPDLAVSLGERATINCRTQQTVDHYGTTYMNWYQQKPGQPPKLLIYLASSLASGVPDRFSGSGSGTDFTLTISSLQAEDVAVYYCQQSRNLWTFGGGTKVEIKR | – | – | – | – | – | – | 1.01 | – | – | 0.496 | 0.25 | 1.83 | 0.000615 | 1.24e+06 | – | – | – | – |
